According to the supplement of paper PMC10567573:

B1: NCF4 (parent)
chain: FGPDSKSSALACTLPTLPAKVYVG

Variants of: B1
Assay: protein stability index of a GFP-peptide fusion (GPS, HEK-293T) (PSI 1-6); higher = more stable
Conditions: c terminus: a fixed tail appended
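Also: lentivirally expressed fusions sorted by FACS into six bins by GFP to DsRed ratio, PSI derived from sequencing read proportions per bin multiplied by bin number.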

Protein stability index, by site and new letter:
T16: H 2.2 | V 2.08 | D 2.45 | L 1.73 | A 2 | I 1.66 | C 2.02 | K 2.33 | S 2.41 | N 2.06 | Q 2.2 | Y 2.45 | W 3.26 | F 2.38 | G 1.88 | M 1.76 | E 2.4 | P 2.05 | R 1.97
P18: Y 2.42 | A 2.98 | M 1.75 | D 2.71 | N 2.24 | L 1.65 | R 1.61 | F 2.02 | H 2.26 | K 2.15 | I 3.81 | S 1.65 | V 1.55 | T 2.03 | C 1.52 | W 2.77 | G 2.12 | Q 2.02 | E 2.23
A11: V 1.76 | T 2.51 | Q 3 | R 1.58 | Y 1.46 | S 2.45
K20: E 2.13 | P 2.35 | M 1.64 | C 2.48 | H 2.19 | N 2.49 | A 2.01 | F 2.48 | D 2.64 | I 2.76 | G 2.38
A19: I 1.87 | S 2.14 | P 2.46 | H 2.17 | E 2.56 | V 2.76 | M 1.55 | N 2.31 | L 1.41 | W 1.26 | Q 1.91 | T 2.05 | Y 1.95 | G 2.58 | C 1.74 | F 2.35 | R 2.47 | K 2.38 | D 2.6
P15: A 1.5 | M 1.86 | L 1.8 | T 1.59 | E 2.29 | S 1.95 | W 3.34 | H 1.67 | Y 2.87 | V 1.99 | G 1.61 | D 1.53 | F 3.49 | N 1.85 | Q 1.89 | K 1.86 | R 1.61 | I 3.1 | C 2.19
C12: H 3.16 | I 2.3 | M 2.77 | T 2.76 | V 2.19 | W 1.88 | F 1.7 | A 2.87 | L 2.33 | N 2.77 | K 2.95 | Q 2.36 | Y 1.88 | R 2.5 | G 2.41 | S 2.87 | E 3.13 | D 2.95
L17: G 2.59 | I 1.88 | A 2.39 | M 2.24 | P 2.6 | T 2.43 | D 2.76 | Q 3.03 | C 2.14 | E 2.64 | V 2.29 | K 2.54 | H 2.09 | S 2.16 | N 2.27 | F 2 | Y 1.54 | W 1.88 | R 2.2
T13: R 2.33 | E 2.7 | N 2.9 | S 2.44 | F 2.39 | I 2.18 | A 2.28 | L 1.83 | D 2.81 | K 2.46 | W 3.59 | C 1.96 | P 1.88 | Q 2.19 | G 1.85 | M 2.15 | Y 1.86 | H 1.85 | V 1.79
L14: D 2.84 | W 1.51 | E 2.76 | Y 1.86 | V 2.11 | G 2.66 | Q 2.25 | T 2.54 | H 2.19 | I 2.15 | S 2.86 | R 2.32 | F 2.25 | A 2.68 | N 2.32 | C 1.77 | K 2.55 | M 2.77
